The target in assay [1] is T1, human TNF-alpha (human, UniProt P01375 77-233). The assay can be described thus: SPR (Biacore T200); Fab captured by anti-human F(ab')2, human TNF injected at 5 nM. Background: In SPR one partner is held on a chip, and binding of the other changes the refractive index at the surface.
Assay [2] concerns the target cynomolgus TNF (cynomolgus) (UniProt P79337). Put plainly: SPR (Biacore T200); Fab captured by anti-human F(ab')2, cynomolgus TNF injected at 3.125 nM.
The target in assay [3] is T1, human TNF-alpha. The assay can be described thus: cell-based or functional assay.
Assay [4] addresses T1, human TNF-alpha. Put plainly: SPR (Biacore T200); IgG captured by anti-mouse IgG-Fc, human TNF injected at 20 nM.

Two molecules from patent US20200291104A1 (UCB, published 2020) can be followed below.

“And” between values parts separate entries of the source, which are not always exact repeats. Equal entries are not always repeated.

The Kd is the concentration at which binding is half-saturated. A high value points to weaker binding. For orientation: koff means the rate constant with which the complex falls apart. The kon is the second-order rate constant of association.

T1 sequence (P01375 77-233 limits assumed): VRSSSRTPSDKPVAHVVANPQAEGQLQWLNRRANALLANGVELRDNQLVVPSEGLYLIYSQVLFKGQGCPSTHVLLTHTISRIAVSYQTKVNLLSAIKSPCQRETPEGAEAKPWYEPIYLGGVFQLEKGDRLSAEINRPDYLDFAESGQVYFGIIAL

B1: 2109 rat/human chimeric Fab (Fab, V domains shown)
VH: EVQLHQSGAALVKPGASVKLSCKTSGYTFTDNYIHWVKQSPGKSLEWIGYINPSSAYAHYNEKFKTKATLTVDKSTNTAYMELSRLTSEDSATYFCTRRYYSAMPFAYWGQGTLVTVSS
VL: DIVMTQSPASLSASLGETVTIECRASEDIYNGLAWYQQKPGKSPHLLIYNSNTLHTGVPSRFSGTGSGTQYSLKINSLQSEDVATYFCQQNYDFPLTFGSGTKLELKR
As to B1, in assay [1], the dissociation constant (Kd) was 0.0349 nM and 0.035 nM; the dissociation rate constant (koff) was determined as 0.000143 s⁻¹; the kon turned out to be 4.09e+06 M⁻¹ s⁻¹. Also, in assay [2], the equilibrium dissociation constant (Kd) is 0.0274 nM and 0.027 nM; the off-rate (koff) worked out at 0.000102 s⁻¹; the kon worked out at 3.71e+06 M⁻¹ s⁻¹.

B2: CA2109 IgG (recombinant rat/mouse chimeric IgG1) (antibody, V domains shown)
VH: EVQLHQSGAALVKPGASVKLSCKTSGYTFTDNYIHWVKQSPGKSLEWIGYINPSSAYAHYNEKFKTKATLTVDKSTNTAYMELSRLTSEDSATYFCTRRYYSAMPFAYWGQGTLVTVSS
VL: DIVMTQSPASLSASLGETVTIECRASEDIYNGLAWYQQKPGKSPHLLIYNSNTLHTGVPSRFSGTGSGTQYSLKINSLQSEDVATYFCQQNYDFPLTFGSGTKLELK
For the molecule B2, the “EC50 (ng/ml), neutralisation in HEK-293-CD40-BLUE reporter assay” value in assay [3] amounted to 0.31 ng/mL. In addition, in assay [4], the dissociation constant Kd is 0.025 nM, the koff amounted to 0.000119 s⁻¹ and the on-rate (kon) came to 4.7e+06 M⁻¹ s⁻¹.
